In paper PMC2756588:

T1: Hof1, Q05080
T1 sequence (Q05080 590-669, looked up): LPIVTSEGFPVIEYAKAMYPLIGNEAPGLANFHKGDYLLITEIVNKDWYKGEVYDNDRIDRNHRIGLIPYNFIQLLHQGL

T2: Lsb1, P53281
T2 sequence (P53281 45-122, looked up): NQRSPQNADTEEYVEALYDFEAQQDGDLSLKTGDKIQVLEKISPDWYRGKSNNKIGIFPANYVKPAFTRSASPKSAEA

T3: Bzz1-1, P38822
T3 sequence (P38822 478-572, looked up): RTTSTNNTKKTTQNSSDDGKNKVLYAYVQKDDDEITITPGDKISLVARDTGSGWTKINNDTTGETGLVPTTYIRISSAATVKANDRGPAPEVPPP

T4: Bzz1-2, P38822
T4 sequence (P38822 568-633, looked up): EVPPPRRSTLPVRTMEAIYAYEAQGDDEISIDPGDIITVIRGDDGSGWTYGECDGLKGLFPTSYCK

T5: Boi2, P39969
T5 sequence (P39969 32-116, looked up): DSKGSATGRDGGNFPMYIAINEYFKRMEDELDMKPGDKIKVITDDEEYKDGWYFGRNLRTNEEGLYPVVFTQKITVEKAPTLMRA

T6: Lsb4, P32793
T6 sequence (P32793 402-468, looked up): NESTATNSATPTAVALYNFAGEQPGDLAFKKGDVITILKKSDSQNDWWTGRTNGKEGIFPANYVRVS

T7: Hse1, P38753
T7 sequence (P38753 208-285, looked up): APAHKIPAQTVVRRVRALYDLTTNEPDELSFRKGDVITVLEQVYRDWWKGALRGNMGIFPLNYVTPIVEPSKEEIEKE

T8: Nbp2, Q12163
T8 sequence (Q12163 103-180, looked up): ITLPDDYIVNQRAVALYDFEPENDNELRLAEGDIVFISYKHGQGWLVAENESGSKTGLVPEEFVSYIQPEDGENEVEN

T9: Bud14, P27637
T9 sequence (P27637 247-328, looked up): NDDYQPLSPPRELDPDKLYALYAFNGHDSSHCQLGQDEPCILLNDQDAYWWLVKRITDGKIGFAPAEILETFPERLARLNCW

T10: Bbc1, P47068
T10 sequence (P47068 1-78, looked up): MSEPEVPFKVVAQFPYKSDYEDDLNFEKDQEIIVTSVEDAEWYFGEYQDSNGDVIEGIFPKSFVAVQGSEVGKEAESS

T11: Fus1, P11710
T11 sequence (P11710 432-512, looked up): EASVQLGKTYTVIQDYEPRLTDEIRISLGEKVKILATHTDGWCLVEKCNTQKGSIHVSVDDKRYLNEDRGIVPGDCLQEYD

T12: Lsb3, P43603
T12 sequence (P43603 385-451, looked up): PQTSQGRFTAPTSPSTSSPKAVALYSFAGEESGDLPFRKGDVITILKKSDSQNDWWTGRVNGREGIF

T13: Sla1-2, P32790
T13 sequence (P32790 60-140, looked up): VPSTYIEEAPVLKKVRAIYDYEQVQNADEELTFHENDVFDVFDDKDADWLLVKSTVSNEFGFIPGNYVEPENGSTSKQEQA

T14: Pex13, P80667
T14 sequence (P80667 295-386, looked up): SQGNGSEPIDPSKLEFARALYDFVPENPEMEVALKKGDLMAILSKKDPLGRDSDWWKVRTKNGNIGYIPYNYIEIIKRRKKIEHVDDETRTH

T15: Myo5, Q04439
T15 sequence (Q04439 1072-1160, looked up): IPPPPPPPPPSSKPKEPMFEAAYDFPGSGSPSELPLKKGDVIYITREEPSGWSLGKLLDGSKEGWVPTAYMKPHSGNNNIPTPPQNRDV

T16: Cdc25, P04821
T16 sequence (P04821 50-136, looked up): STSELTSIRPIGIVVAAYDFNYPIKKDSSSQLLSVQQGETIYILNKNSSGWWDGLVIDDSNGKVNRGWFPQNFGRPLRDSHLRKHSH

T17: Boi1, P38041
T17 sequence (P38041 1-86, looked up): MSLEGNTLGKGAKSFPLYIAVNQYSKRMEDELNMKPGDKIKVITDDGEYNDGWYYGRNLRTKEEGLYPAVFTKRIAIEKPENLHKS

T18: Cyk3, Q07533
T18 sequence (Q07533 1-83, looked up): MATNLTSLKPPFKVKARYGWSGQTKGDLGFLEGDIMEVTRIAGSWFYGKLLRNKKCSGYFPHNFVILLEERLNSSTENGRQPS

T19: Abp1, P15891
T19 sequence (P15891 535-592, looked up): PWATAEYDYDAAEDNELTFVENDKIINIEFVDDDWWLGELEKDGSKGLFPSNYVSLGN

T20: Sla1-3, P32790
T20 sequence (P32790 344-424, looked up): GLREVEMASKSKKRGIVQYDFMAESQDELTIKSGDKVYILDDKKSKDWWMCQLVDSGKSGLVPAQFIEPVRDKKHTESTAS

T21: Pin3, Q06449
T21 sequence (Q06449 53-122, looked up): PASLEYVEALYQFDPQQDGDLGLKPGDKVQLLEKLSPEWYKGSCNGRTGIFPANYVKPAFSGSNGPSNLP

B1: unnamed (peptide)
chain: AKDLIVPRRPEWNEG
B2: unnamed (peptide)
chain: GSKSGPPPRPKKPST
B3: unnamed (peptide)
chain: KDKKTKPTPPPKPSH
B4: unnamed (peptide)
chain: TKPTPPPKPSHLKPK

Target: T1, Hof1, Q05080
Assay: SPOT array
Settings: median of control spots 4086

Binder | SPOT intensity
B1 | 5260
B2 | 0
B3 | 0
B4 | 3

Target: Bem1-1, P29366
Sequence (P29366 55-141): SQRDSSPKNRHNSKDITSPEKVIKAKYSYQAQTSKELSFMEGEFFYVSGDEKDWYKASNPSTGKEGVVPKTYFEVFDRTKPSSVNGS
Assay: SPOT array
Settings: median of control spots 4282

Binder | SPOT intensity
B1 | 3920
B2 | 1
B3 | 1
B4 | 0

Target: T2, Lsb1, P53281
Assay: SPOT array
Settings: median of control spots 388

Binder | SPOT intensity
B1 | 636
B2 | 0
B3 | 0
B4 | 0

Target: T3, Bzz1-1, P38822
Assay: SPOT array
Settings: median of control spots 4446

Binder | SPOT intensity
B1 | 2630
B2 | 3
B3 | 0
B4 | 0

Target: T4, Bzz1-2, P38822
Assay: SPOT array
Settings: median of control spots 4538

Binder | SPOT intensity
B1 | 2660
B2 | 11
B3 | 1
B4 | 0

Target: T5, Boi2, P39969
Assay: SPOT array
Settings: median of control spots 1161

Binder | SPOT intensity
B1 | 1640
B2 | 0
B3 | 0
B4 | 0

Target: T6, Lsb4, P32793
Assay: SPOT array
Settings: median of control spots 397

Binder | SPOT intensity
B1 | 768
B2 | 2
B3 | 0
B4 | 5

Target: T7, Hse1, P38753
Assay: SPOT array
Settings: median of control spots 1727

Binder | SPOT intensity
B1 | 1130
B2 | 38
B3 | 2
B4 | 11

Target: T8, Nbp2, Q12163
Assay: SPOT array
Settings: median of control spots 357

Binder | SPOT intensity
B1 | 1390
B2 | 0
B3 | 2
B4 | 1

Target: T9, Bud14, P27637
Assay: SPOT array
Settings: median of control spots 956

Binder | SPOT intensity
B1 | 480
B2 | 7
B3 | 4
B4 | 1

Target: T10, Bbc1, P47068
Assay: SPOT array
Settings: median of control spots 796

Binder | SPOT intensity
B1 | 1050
B2 | 13
B3 | 0
B4 | 1

Target: GST
Assay: SPOT array
Settings: median of control spots 978

Binder | SPOT intensity
B1 | 446
B2 | 2
B3 | 3
B4 | 0

Target: Sho1, P40073
Sequence (P40073 287-367): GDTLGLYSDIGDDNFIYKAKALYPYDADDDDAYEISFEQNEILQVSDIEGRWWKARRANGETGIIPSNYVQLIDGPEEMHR
Assay: SPOT array
Settings: median of control spots 1148

Binder | SPOT intensity
B1 | 1570
B2 | 16
B3 | 50
B4 | 199

Target: T11, Fus1, P11710
Assay: SPOT array
Settings: median of control spots 1200

Binder | SPOT intensity
B1 | 1230
B2 | 0
B3 | 4
B4 | 2

Target: T12, Lsb3, P43603
Assay: SPOT array
Settings: median of control spots 406

Binder | SPOT intensity
B1 | 591
B2 | 55
B3 | 2
B4 | 75

Target: Bem1-2, P29366
Sequence (P29366 139-227): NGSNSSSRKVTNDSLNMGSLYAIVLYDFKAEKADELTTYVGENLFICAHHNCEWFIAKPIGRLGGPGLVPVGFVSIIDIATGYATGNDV
Assay: SPOT array
Settings: median of control spots 4347

Binder | SPOT intensity
B1 | 5580
B2 | 2
B3 | 5
B4 | 0

Target: T13, Sla1-2, P32790
Assay: SPOT array
Settings: median of control spots 712

Binder | SPOT intensity
B1 | 550
B2 | 1
B3 | 1
B4 | 0

Target: T14, Pex13, P80667
Assay: SPOT array
Settings: median of control spots 1341

Binder | SPOT intensity
B1 | 567
B2 | 23
B3 | 0
B4 | 266

Target: T15, Myo5, Q04439
Assay: SPOT array
Settings: median of control spots 471

Binder | SPOT intensity
B1 | 624
B2 | 0
B3 | 0
B4 | 0

Target: T16, Cdc25, P04821
Assay: SPOT array
Settings: median of control spots 969

Binder | SPOT intensity
B1 | 347
B2 | 0
B3 | 2
B4 | 2

Target: T17, Boi1, P38041
Assay: SPOT array
Settings: median of control spots 1162

Binder | SPOT intensity
B1 | 1450
B2 | 4
B3 | 0
B4 | 0

Target: Rvs167, P39743
Sequence (P39743 419-482): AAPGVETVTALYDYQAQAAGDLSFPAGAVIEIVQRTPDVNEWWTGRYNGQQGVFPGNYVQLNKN
Assay: SPOT array
Settings: median of control spots 2707

Binder | SPOT intensity
B1 | 1950
B2 | 1
B3 | 1
B4 | 0

Target: Myo3, P36006
Assay: SPOT array
Settings: median of control spots 468

Binder | SPOT intensity
B1 | 461
B2 | 3
B3 | 0
B4 | 0

Target: T18, Cyk3, Q07533
Assay: SPOT array
Settings: median of control spots 1451

Binder | SPOT intensity
B1 | 2720
B2 | 3
B3 | 2
B4 | 1

Target: T19, Abp1, P15891
Assay: SPOT array
Settings: median of control spots 935

Binder | SPOT intensity
B1 | 766
B2 | 285
B3 | 190
B4 | 631

Target: T20, Sla1-3, P32790
Assay: SPOT array
Settings: median of control spots 5475

Binder | SPOT intensity
B1 | 2730
B2 | 4
B3 | 0
B4 | 1

Target: T21, Pin3, Q06449
Assay: SPOT array
Settings: median of control spots 2171

Binder | SPOT intensity
B1 | 694
B2 | 2
B3 | 0
B4 | 0
